For 8 molecules, binding result and Kd results are on record in US20220175942A1 (OXFORD UNIVERSITY INNOVATION, published 2022).

The chains are these.
B2: CCL17_HUMAN (ligand)
chain: ARGTNVGRECCLEYFKGAIPLRKLKTWYQTSEDCSRDAIVFVTVQGRAICSDPNNKRVKNAVKYLQSLERS
notes: Biotinylated (detected with streptavidin-Alexa647) in yeast display; AlexaFluor 647 labelled (Almac) in thermophoresis
B8: CCL19_HUMAN (ligand)
chain: GTNDAEDCCLSVTQKPIPGYIVRNFHYLLIKDGCRVPAVVFTTLRGRQLCAPPDQPWVERIIQRLQRTSAKMKRRSS
notes: as for B2

Assay [1] has as its target T1, CCL5_HUMAN (human, UniProt P13501 24-91).
T1 construct: Biotinylated (detected with streptavidin-Alexa647) in yeast display; AlexaFluor 647 labelled (Almac) in thermophoresis
T1 sequence: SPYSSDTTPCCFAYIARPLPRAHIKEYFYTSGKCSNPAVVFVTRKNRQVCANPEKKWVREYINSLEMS
Briefly: yeast surface display FACS re-test, >3 fold MFI over control (col D).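 Further: yeast displaying putative tick Evasins stained with biotinylated human chemokine plus streptavidin-Alexa647, flow cytometry, positive when MFI exceeds 3-fold the empty-vector or no-chemokine background.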

In assay [2] the target is T2, CCL25_HUMAN (human, UniProt O15444 24-150).
T2 construct: Biotinylated (detected with streptavidin-Alexa647) in yeast display; AlexaFluor 647 labelled (Almac) in thermophoresis
T2 sequence: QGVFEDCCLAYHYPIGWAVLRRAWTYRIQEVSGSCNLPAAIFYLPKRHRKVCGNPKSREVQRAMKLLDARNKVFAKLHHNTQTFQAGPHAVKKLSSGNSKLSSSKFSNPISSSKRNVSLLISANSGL
Nature of the assay: yeast surface display library FACS screen, labelled chemokine (col C: isolated in).

The target in assay [3] is B2. Described as above.
The target in assay [4] is T3, CCL20_HUMAN (human, UniProt P78556 27-96).
T3 construct: Biotinylated (detected with streptavidin-Alexa647) in yeast display; AlexaFluor 647 labelled (Almac) in thermophoresis
The description is as above.

Assay [5] addresses T4, CCL1_HUMAN (human, UniProt P22362 24-96).
T4 construct: Biotinylated (detected with streptavidin-Alexa647) in yeast display; AlexaFluor 647 labelled (Almac) in thermophoresis
T4 sequence: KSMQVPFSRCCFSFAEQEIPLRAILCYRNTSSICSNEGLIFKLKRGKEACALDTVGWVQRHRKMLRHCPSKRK
The description is as above.

Assay [6] addresses T5, CXCL8_HUMAN (human, UniProt P10145 28-99).
T5 construct: Biotinylated (detected with streptavidin-Alexa647) in yeast display; AlexaFluor 647 labelled (Almac) in thermophoresis
T5 sequence: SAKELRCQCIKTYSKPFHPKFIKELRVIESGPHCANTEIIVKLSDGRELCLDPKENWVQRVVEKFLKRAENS
Described as above.

Assay [7] concerns the target T6, CCL11_HUMAN (human, UniProt P51671 24-97).
T6 construct: Biotinylated (detected with streptavidin-Alexa647) in yeast display; AlexaFluor 647 labelled (Almac) in thermophoresis
The assay is described as above.

Assay [8] has as its target T7, P546_AMBCA (Amblyomma cajennense, UniProt A0A023FBW7 22-118).
T7 construct: Tick evasin; also called Evasin
T7 sequence: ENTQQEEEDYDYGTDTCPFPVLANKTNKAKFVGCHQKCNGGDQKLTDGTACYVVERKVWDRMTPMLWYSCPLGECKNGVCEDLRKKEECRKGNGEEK
Briefly: yeast surface display FACS re-test, >3 fold MFI over control (col D).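 Further: yeast displaying putative tick Evasins stained with biotinylated human chemokine plus streptavidin-Alexa647, flow cytometry, positive when MFI exceeds 3-fold the empty-vector or no-chemokine background.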

The target of assay [9] is T8, P1243_AMBAM (Amblyomma americanum, UniProt A0A0C9S461 26-123).
T8 construct: Tick evasin; also called Evasin
T8 sequence: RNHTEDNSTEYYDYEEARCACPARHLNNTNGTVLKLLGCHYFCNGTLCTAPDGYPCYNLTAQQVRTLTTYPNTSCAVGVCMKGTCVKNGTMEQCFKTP
Briefly: yeast surface display library FACS screen, labelled chemokine (col C: isolated in).

For assay [10], the target named is T9, P974_AMBCA (Amblyomma cajennense, UniProt A0A023FDY8 22-118).
T9 construct: Tick evasin; also called Evasin
T9 sequence: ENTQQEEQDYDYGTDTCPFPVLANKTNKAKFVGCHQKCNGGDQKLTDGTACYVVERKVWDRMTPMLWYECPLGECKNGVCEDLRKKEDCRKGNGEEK
Described as above.

For assay [11], the target named is T10, P991_AMBCA (Amblyomma cajennense, UniProt A0A023FFD0 29-136).
T10 construct: Tick evasin; also called Evasin
T10 sequence: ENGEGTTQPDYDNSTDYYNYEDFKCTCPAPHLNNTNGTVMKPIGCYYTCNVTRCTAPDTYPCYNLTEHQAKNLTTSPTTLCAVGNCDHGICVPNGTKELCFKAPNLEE
Described as above.

Assay [12] has as its target T7, P546_AMBCA. Nature of the assay: microscale thermophoresis, AlexaFluor 647 labelled chemokine. Background: Microscale thermophoresis detects binding through changes in fluorescence in a small temperature gradient.
Assay [13] addresses T8, P1243_AMBAM. Briefly: yeast surface display FACS re-test, >3 fold MFI over control (col D).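 Further: yeast displaying putative tick Evasins stained with biotinylated human chemokine plus streptavidin-Alexa647, flow cytometry, positive when MFI exceeds 3-fold the empty-vector or no-chemokine background.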
Assay [14] concerns the target T11, P1182_AMBMA (Amblyomma maculatum, UniProt G3MJ83 27-115).
T11 construct: Tick evasin; also called Evasin
T11 sequence: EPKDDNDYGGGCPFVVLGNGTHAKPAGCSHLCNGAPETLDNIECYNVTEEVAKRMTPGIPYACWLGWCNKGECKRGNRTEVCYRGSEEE
Nature of the assay: yeast surface display library FACS screen, labelled chemokine (col C: isolated in).

The target in assay [15] is T12, P467_RHIPU (Rhipicephalus pulchellus, UniProt L7M8Z8 22-127).
T12 construct: Tick evasin; also called Evasin
T12 sequence: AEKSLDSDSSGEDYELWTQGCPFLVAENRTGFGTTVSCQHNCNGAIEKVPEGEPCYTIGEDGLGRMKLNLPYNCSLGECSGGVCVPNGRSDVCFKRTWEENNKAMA
Described as above.

In assay [16] the target is T13, P1181_AMBMA (Amblyomma maculatum, UniProt G3MIX6 26-115).
T13 construct: Tick evasin; also called Evasin
T13 sequence: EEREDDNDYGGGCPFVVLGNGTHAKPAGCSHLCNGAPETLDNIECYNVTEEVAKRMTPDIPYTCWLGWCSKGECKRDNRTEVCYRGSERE
The assay is described as above.

Assay [17] addresses T2, CCL25_HUMAN. Briefly: yeast surface display FACS re-test, >3 fold MFI over control (col D).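 Further: yeast displaying putative tick Evasins stained with biotinylated human chemokine plus streptavidin-Alexa647, flow cytometry, positive when MFI exceeds 3-fold the empty-vector or no-chemokine background.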
The target of assay [18] is T14, CXCL10_HUMAN (human, UniProt P02778 22-98).
T14 construct: Biotinylated (detected with streptavidin-Alexa647) in yeast display; AlexaFluor 647 labelled (Almac) in thermophoresis
T14 sequence: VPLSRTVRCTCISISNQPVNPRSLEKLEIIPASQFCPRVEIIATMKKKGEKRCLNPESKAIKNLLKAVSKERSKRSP
Described as above.

Assay [19] deals with T15, CCL8_HUMAN (human, UniProt P80075 24-99).
T15 construct: Biotinylated (detected with streptavidin-Alexa647) in yeast display; AlexaFluor 647 labelled (Almac) in thermophoresis
T15 sequence: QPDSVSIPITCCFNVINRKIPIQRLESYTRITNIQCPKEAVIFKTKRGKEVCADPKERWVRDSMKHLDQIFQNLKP
The assay is described as above.

The target in assay [20] is B8. Described as above.
Assay [21] addresses B2. The description is as above.
For assay [22], the target named is T3, CCL20_HUMAN. The assay is described as above.
For assay [23], the target named is T16, CCL18_HUMAN (human, UniProt P55774 21-89).
T16 construct: Biotinylated (detected with streptavidin-Alexa647) in yeast display; AlexaFluor 647 labelled (Almac) in thermophoresis
T16 sequence: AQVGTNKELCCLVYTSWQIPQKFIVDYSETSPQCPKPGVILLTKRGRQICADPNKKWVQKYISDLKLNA
The description is as above.

For assay [24], the target named is T1, CCL5_HUMAN. Briefly: yeast surface display library FACS screen, labelled chemokine (col C: isolated in).
The target of assay [25] is T17, CCL4 (human, UniProt P13236 24-92).
T17 construct: Biotinylated (detected with streptavidin-Alexa647) in yeast display; also called human CCL4
T17 sequence: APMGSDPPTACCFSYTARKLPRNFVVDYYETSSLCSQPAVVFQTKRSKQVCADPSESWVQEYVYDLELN
Briefly: yeast surface display FACS re-test, >3 fold MFI over control (col D).

The target in assay [26] is T18, CCL22_HUMAN (human, UniProt O00626 25-93).
T18 construct: Biotinylated (detected with streptavidin-Alexa647) in yeast display; AlexaFluor 647 labelled (Almac) in thermophoresis
T18 sequence: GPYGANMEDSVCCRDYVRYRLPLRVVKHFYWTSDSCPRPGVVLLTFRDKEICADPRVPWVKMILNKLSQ
The assay is described as above.

T6 sequence (P51671 24-97 limits assumed): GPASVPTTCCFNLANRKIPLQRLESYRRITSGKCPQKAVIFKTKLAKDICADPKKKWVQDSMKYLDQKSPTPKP
T3 sequence (P78556 27-96 limits assumed): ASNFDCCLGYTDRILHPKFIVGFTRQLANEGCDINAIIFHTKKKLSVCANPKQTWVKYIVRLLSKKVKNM

B1: P993_AMBPA (other)
chain: HRHYDPNEPCLIAGLKTPRDALPAGCRYDCMIKKNQKLRDGLLCLDVPEKVVKRMVNYLNYSCPLGTCRKGICKRKHRNVRCQKYPVFYMSPPK
notes: Tick evasin
On to B1, for which the binding result in [1], in assay [2], in [3], in [4], in assay [5] and in assay [6] was “binds” throughout. Besides, the binding result in assay [7] is “binds”.
In the case of B2, the binding result in [8], in assay [9], in assay [10] and in assay [11] was “binds” in each case.

B3: CCL3_HUMAN (ligand)
chain: SLAADTPTACCFSYTSRQIPQNFIADYFETSSQCSKPGVIFLTKRSRQVCADPSEEWVQKYVSDLELSA
notes: as for B2
The Kd is the concentration at which binding is half-saturated. A higher Kd goes with a looser complex. Take B3: in [12], the Kd stood at 171 nM. The binding result in assay [13], in assay [14], in [15] and in assay [16] was “binds” each time.

B4: P1209_AMBPA (other)
chain: KTDTKNAAGELPPKVAIPGCEDPATTKAPLPDDPRYYGVTIDKDGCQRKVLGSSQRQQRQVQNGRKPGRKGRGRRPVFVDLKLTVDCKRKCNGTYSQLPDGEPCLVCDGEPYGRHRTIKGGCYQGNCSSGQCHRGERKVNCYIPKNITNNVLNSVNLAE
notes: Tick evasin; also called Evasin
On to B4, for which the binding result in assay [17], in [18], in assay [19], in assay [20], in assay [21] and in assay [22] was “binds” each time. Further, the binding result in assay [23], in [5], in assay [6], in [7] and in [24] was “binds” throughout.

B5: P1252_AMBAM (other)
chain: RGGAASVPANASIPGCGDAQTTPAAPEDQPKHYVVYRDGNGCEVKIIGTWMTTEDYNCLPDTFRKNRAPHGKVKLPASCKKTCGNAVQNLKDGTPCRKVFGDLGRRRNLIKNGCLVGACQSGLCVSGNRTISCYIPPNSTDTRATPGSFAE
notes: as for B4
For B5, the binding result in [3], in assay [4] and in [7] was “binds” throughout.

B6: P1014_AMBCA (other)
chain: DIIGGIPGCGDPTTTSAPEVPPKHFAVRTDKDGCTLMIIGTWMTTEDHNRLPPDIGEKRAPYGRVQLPASCKKNCHGKVKNLPNGTPCREVFGDPRRGRKHIKNGCTVGKCQSGLCVTDKRIISCYIPPNITDPIPTHGPWAE
notes: as for B4
Consider B6, for which the binding result in assay [25], in assay [2], in [5] and in [7] was “binds” in each case.

B7: P1006_AMBCA (other)
chain: DTIGGIPGCGDPATTSAPEDQPKHYAVRTDKNGCKVMVIGTWMTKEDHNLLPPYISKERAPSGKVQLPASCKKNCHGKLKNLPNGTPCREVFGDLRRRRKHIKDGCKVGKCQNGLCVSEERIISCYLPPNITDPRPTHGPLAE
notes: as for B4
As for B7, the binding result in [20], in assay [26], in assay [1], in assay [2], in assay [5] and in assay [6] was “binds” throughout. For the same molecule, the binding result in assay [7] is on record as “binds”.
For the molecule B8, the binding result in assay [13] and in assay [11] was “binds” in each case.
